# In patent US20090130123A1 (published 2009):
# T1: WNV E protein DIII displayed on yeast (Saccharomyces cerevisiae; West Nile …, UniProt Q9Q6P4 586-705)
# T1 construct: domain: DIII; also called WNV DIII
# T1 sequence: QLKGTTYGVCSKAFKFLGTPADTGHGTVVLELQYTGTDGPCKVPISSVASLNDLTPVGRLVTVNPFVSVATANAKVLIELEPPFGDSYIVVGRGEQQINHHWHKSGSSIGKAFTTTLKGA
# T2: Recombinant WNV-E protein ectodomain (West Nile virus, UniProt Q9Q6P4 291-700)
# T2 construct: extracellular domain; also called rWNV-E; WNE
# T2 sequence (looked up): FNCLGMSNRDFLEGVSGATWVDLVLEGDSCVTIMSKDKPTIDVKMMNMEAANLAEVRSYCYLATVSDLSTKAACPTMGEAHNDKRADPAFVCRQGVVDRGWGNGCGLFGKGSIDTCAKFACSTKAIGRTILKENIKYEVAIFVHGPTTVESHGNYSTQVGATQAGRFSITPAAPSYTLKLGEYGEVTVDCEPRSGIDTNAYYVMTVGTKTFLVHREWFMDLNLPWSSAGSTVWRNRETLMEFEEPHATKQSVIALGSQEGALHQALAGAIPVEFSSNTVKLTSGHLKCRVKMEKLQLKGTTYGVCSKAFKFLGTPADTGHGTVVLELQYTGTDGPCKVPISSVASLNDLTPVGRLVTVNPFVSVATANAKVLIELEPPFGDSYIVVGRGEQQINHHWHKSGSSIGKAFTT
# B1: scFv-Fc 11 (Fc fusion)
# chain: QVQLVQSGAEVKKPGASVKVSCKASGYTFSGYSTHWLRQVPGQGLEWIGWDNPSSGDTTYAENFRGRVTLTRDTSITTDYLEVRGLRSDDTAVYYCARGGDDYSFDHWGQGTLVTVSSGGGGSGGGGSGGGGSSSELTQDPAVSVALGQTVRITCRGDSLRSYYASWYQQKPGQAPVLVIYGENNRPSGIPDRFSGSSSGDTASLTITGAQAEDEADYYCNSRDSSDHLLLFGGGTKL
# notes: also called 11 scFv-Fc
# B2: scFv-Fc 15 (Fc fusion)
# chain: QVQLVQSGAEVKKPGASVKVSCKASGYTFSGYSTHWLRQVPGQGLEWIGWDNPSSGDTTYAENFRGRVTLTRDTSITTDYLEVRGLRSDDTAVYYCARGGDDYSFDHWGQGTLVTVSSGGGGSGGGGSGGGGSQSALTQPASVSGSPGQSITISCTGTNSDVGIYNLVSWYQQHPGKAPKLMIYDVSNRPSGVSSRFSGSNSGNTATLTISGLQAEDEADYYCSAHAGDNTQFGGGTKLTVLS
# notes: also called 15 scFv-Fc
# B3: scFv-Fc 71 (Fc fusion)
# chain: QVQLVQSGAEVKKPGASVKVSCKASGYTFSGYSTHWLRQVPGQGLEWIGWDNPSSGDTTYAENFRGRVTLTRDTSITTDYLEVRGLRSDDTAVYYCARGGDDYSFDHWGQGTLVTVSSGGGGSGGGGSGGGGSSYELTQPPSASGTTGQRVTISCSGSSSNIGSNTVNWYQQLPGTAPKLLIYSNNQRPSGVPDRLSGSKSGTSASLAISGLQSEDEADYYCAAWDARLTGPLFGGGTKLSVLR
# notes: also called 71 scFv-Fc
# B4: scFv-Fc 73 (Fc fusion)
# chain: QVQLVQSGAEVKKPGASVKVSCKASGYTFSGYSTHWLRQVPGQGLEWIGWDNPSSGDTTYAENFRGRVTLTRDTSITTDYLEVRGLRSDDTAVYYCARGGDDYSFDHWGQGTLVTVSSGGGGSGGGGSGGGGSSYELTQPPSASGTPGQRVTISCSGSSSNIGSNTVNWYQQLPGTAPKLLIYSNNQRPSGVPDRFSGSKSGTSASLAISGLQSEDEADYYCAAWDARLTGPLFGGGTKLSVLR
# notes: also called 73 scFv-Fc
# B5: 79 scFv-Fc (Fc fusion)
# chain: QVQLVQSGAEVKKPGSSVKVSCKASGGTFSSYAISWVRQAPGQGLEWMGWMNSNTGDTGYAQKFQGRVTMTRNTSTSTAYMELSSLRSEDTAVYYCAKISNYHYYAMDVWGQGTLVTVSSGGGGSGGGGSGGGGSLPVLTQPPSASGTSGQTVTISCSGGSSNIGSHLVTWYQQFPGTAPKVLIHTNDQRPSGVPDRISGSKSGTSASLAISGLQSDDEGDYYCAAWDDSLNGYVFGTGTKVTVLG
# notes: also called scFv-Fc 79; antibody 79 (scFv-Fc)
# B6: 84 scFv-Fc (Fc fusion)
# chain: QVQLVQSGAEVKKPGASVKVSCKASGYTFSGYSTHWLRQVPGQGLEWIGWDNPSSGDTTYAENFRGRVTLTRDTSITTDYLEVRGLRSDDTAVYYCARGGDDYSFDHWGQGTLVTVSSGGGGSGGGGSGGGGSQSVLTQPPSVSVAPGKTARIPCGGNNSGTKSVHWYQQKPGQAPVLVIYDDRVRPSGIPERFSGSNSGDTATLTISRVAAGDEADYYCQVSDGSGDPPTWVFGGGTRLTVL
# notes: also called scFv-Fc 84
# B7: scFv 79 (scFv)
# scFv: MAQVQLVQSGAEVKKPGSSVKVSCKASGGTFSSYAISWVRQAPGQGLEWMGWMNSNTGDTGYAQKFQGRVTMTRNTSTSTAYMELSSLRSEDTAVYYCAKISNYHYYAMDVWGQGTLVTVSSGGGGSGGGGSGGGGSLPVLTQPPSASGTSGQTVTISCSGGSSNIGSHLVTWYQQFPGTAPKVLIHTNDQRPSGVPDRISGSKSGTSASLAISGLQSDDEGDYYCAAWDDSLNGYVFGTGTKVTVLGQPKATPSAAAEQKLISEEDL
# notes: also called 79 scFv; antibody 79
# B8: scFv 15 (scFv)
# scFv: MAQVQLVQSGAEVKKPGASVKVSCKASGYTFSGYSTHWLRQVPGQGLEWIGWDNPSSGDTTYAENFRGRVTLTRDTSITTDYLEVRGLRSDDTAVYYCARGGDDYSFDHWGQGTLVTVSSGGGGSGGGGSGGGGSQSALTQPASVSGSPGQSITISCTGTNSDVGIYNLVSWYQQHPGKAPKLMIYDVSNRPSGVSSRFSGSNSGNTATLTISGLQAEDEADYYCSAHAGDNTQFGGGTKLTVLSQPKAAPSAAAEQKLISEEDL
# notes: also called 15 scFv; antibody 15
# B9: 10 (Fc fusion)
# scFv-Fc chain: QVQLVQSGAEVKKPGSSVKVSCKASGYTFSGYSTHWLRQVPGQGLEWIGWDNPSSGDTTYAENFRGRVTLTRDTSITTDYLEVRGLRSDDTAVYYCARGGDDYSFDHWGQGTLVTVSSSGGGSGGGGSGGGGSQTVVTQEPSFSVSPGGTITLTCGLSSGSVFTSYYPSWYQQTPGQAPRTLIYSTNTRSSGVPDRFSGSILGNKAALTITGAQADDESDYYCVLYMGSGIGVFGTGTKVTVLG
# notes: also called scFv-Fc 10; 10 scFv-Fc
# B10: scFv 69 (scFv, not shown: small tags and cut ends)
# scFv: MAQVQLVQSGAEVKEPGSSVKVSCKASGGTFSNYPISWVRQAPGQGLEWMGGIIPITNSPGYAQKFQGRVTISADESTGTVYMELSSLRSEDTAIYYCAKDPNRYESGVLHYWHGLDVWGQGTTVTVSSGGGGSGGGGSGGGGSLPVLTQPPSASGTPGQTVTLSCSGSSSNIGSNTVNWYQQLPGTAPKLLIYSNNQRPSGVPDRFSASKSGTSASLAITGLQAEDEADYFCAAWDDSLVYVFGTGTKVTVLGQPKAAPSAAAEQKLISEEDL
# notes: also called 69 scFv; antibody 69
# B11: scFv 71 (scFv)
# scFv: MAQVQLVQSGAEVKKPGASVKVSCKASGYTFSGYSTHWLRQVPGQGLEWIGWDNPSSGDTTYAENFRGRVTLTRDTSITTDYLEVRGLRSDDTAVYYCARGGDDYSFDHWGQGTLVTVSSGGGGSGGGGSGGGGSSYELTQPPSASGTTGQRVTISCSGSSSNIGSNTVNWYQQLPGTAPKLLIYSNNQRPSGVPDRLSGSKSGTSASLAISGLQSEDEADYYCAAWDARLTGPLFGGGTKLSVLRQPKAAPSAAAEQKLISEEDL
# notes: also called 71 scFv; antibody 71
# B12: scFv 73 (scFv)
# scFv: MAQVQLVQSGAEVKKPGASVKVSCKASGYTFSGYSTHWLRQVPGQGLEWIGWDNPSSGDTTYAENFRGRVTLTRDTSITTDYLEVRGLRSDDTAVYYCARGGDDYSFDHWGQGTLVTVSSGGGGSGGGGSGGGGSSYELTQPPSASGTPGQRVTISCSGSSSNIGSNTVNWYQQLPGTAPKLLIYSNNQRPSGVPDRFSGSKSGTSASLAISGLQSEDEADYYCAAWDARLTGPLFGGGTKLSVLRQPKAAPSAAAEQKLISEEDL
# notes: also called 73 scFv; antibody 73
# B13: scFv 84 (scFv)
# scFv: MAQVQLVQSGAEVKKPGASVKVSCKASGYTFSGYSTHWLRQVPGQGLEWIGWDNPSSGDTTYAENFRGRVTLTRDTSITTDYLEVRGLRSDDTAVYYCARGGDDYSFDHWGQGTLVTVSSGGGGSGGGGSGGGGSQSVLTQPPSVSVAPGKTARIPCGGNNSGTKSVHWYQQKPGQAPVLVIYDDRVRPSGIPERFSGSNSGDTATLTISRVAAGDEADYYCQVSDGSGDPPTWVFGGGTRLTVLGQPKAAPSAAAEQKLISEEDL
# notes: also called 84 scFv; antibody 84
# B14: scFv 85 (scFv, not shown: small tags and cut ends)
# scFv: MAQVQLVQSGAEVKKPGASVKVSCKASGYTFSGYSTHWLRQVPGQGLEWIGWDNPSSGDTTYAENFRGRVTLTRDTSITTDYLEVRGLRSDDTAVYYCARGGDDYSFDHWGQGTLVTVSSGGGGSGGGGSGGGGSSSELTQDPAVSVALGQTVTITCQGGGLRNYYASWYQQKPGQAPVLLVYGRDNRPSGIPDRFSGSSSGNTASLTITGAQAEDEADYYCNSRDSSGNHLVFGGGTKLTVLGQPKATPSAAAEQKLISEEDL
# notes: also called 85 scFv; antibody 85
# B15: scFv 11 (scFv)
# scFv: MAQVQLVQSGAEVKKPGASVKVSCKASGYTFSGYSTHWLRQVPGQGLEWIGWDNPSSGDTTYAENFRGRVTLTRDTSITTDYLEVRGLRSDDTAVYYCARGGDDYSFDHWGQGTLVTVSSGGGGSGGGGSGGGGSSSELTQDPAVSVALGQTVRITCRGDSLRSYYASWYQQKPGQAPVLVIYGENNRPSGIPDRFSGSSSGDTASLTITGAQAEDEADYYCNSRDSSDHLLLFGGGTKLTVLGQPKATPSAAAEQKLISEEDL
# notes: also called 11 scFv; antibody 11
# Key:
# [1] = molecular target: West Nile virus E protein on WNV strain 2741 virions (West Nile virus, UniProt Q9Q6P4 291-791); assay: cell-based or functional assay
# Chain of West Nile virus E protein on WNV strain 2741 virions (Q9Q6P4 291-791 limits assumed): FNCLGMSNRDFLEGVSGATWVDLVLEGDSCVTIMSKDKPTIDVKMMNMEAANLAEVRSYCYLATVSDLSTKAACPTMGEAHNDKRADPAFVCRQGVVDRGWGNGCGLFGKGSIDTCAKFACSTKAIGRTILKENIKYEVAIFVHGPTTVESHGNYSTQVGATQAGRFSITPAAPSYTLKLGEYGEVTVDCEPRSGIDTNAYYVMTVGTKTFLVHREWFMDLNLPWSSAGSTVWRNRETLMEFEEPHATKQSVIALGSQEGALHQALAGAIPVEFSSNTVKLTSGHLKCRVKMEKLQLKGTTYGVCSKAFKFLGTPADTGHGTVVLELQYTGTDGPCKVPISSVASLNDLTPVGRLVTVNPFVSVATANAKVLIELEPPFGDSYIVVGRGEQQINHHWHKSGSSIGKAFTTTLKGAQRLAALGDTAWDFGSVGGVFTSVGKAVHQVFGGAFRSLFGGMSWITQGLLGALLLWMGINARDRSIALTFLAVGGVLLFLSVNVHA
# [2] = molecular target: T1, WNV E protein DIII displayed on yeast; assay: flow cytometry on yeast displaying WNV E DIII (pYD1); % positive cells
# [3] = molecular target: T2, Recombinant WNV-E protein ectodomain; assay: SPR (Biacore); scFv-Fc captured by goat anti-human IgG on CM4 chip, rWNV-E in solution
# [4] = molecular target: T2, Recombinant WNV-E protein ectodomain
# [5] = molecular target: T2, Recombinant WNV-E protein ectodomain; assay: SPR (Biacore 3000); scFv on NTA chip via His tag, rWNV-E in solution
Binder,"PRNT80 titer (µg/ml), plaque reduction neutralization of WNV on Vero cells [1]",binding result [2],Ka [5],Kd [5],koff [5],kon [5],other results
B1,1.25 µg/mL,no binding,,,,,
B2,1.25 µg/mL,no binding,,,,,
B3,2.5 µg/mL,no binding,,,,,
B4,1.25 µg/mL,no binding,,,,,
B5,5 µg/mL,no binding,,,,,Ka [3]: 7.34e+10 M⁻¹; Kd [3]: 0.0136 nM; koff [3]: 3.58e-07 s⁻¹; kon [3]: 26200 M⁻¹ s⁻¹
B6,12.5 µg/mL,no binding,,,,,
B7,,,1.87e+08 M⁻¹,5.35 nM,0.00067 s⁻¹,125000 M⁻¹ s⁻¹,EC50 (read off the curve) [4]: ~0.4 µg/mL
B8,,,1.04e+08 M⁻¹,9.65 nM,0.00128 s⁻¹,133000 M⁻¹ s⁻¹,EC50 (read off the curve) [4]: ~0.3 µg/mL
B9,,no binding,,,,,
B10,,,1.69e+07 M⁻¹,59.2 nM,,,
B11,,,3.64e+07 M⁻¹,27.5 nM,0.00258 s⁻¹,93900 M⁻¹ s⁻¹,
B12,,,2.3e+08 M⁻¹,4.35 nM,0.00225 s⁻¹,517000 M⁻¹ s⁻¹,
B13,,,2.65e+07 M⁻¹,37.8 nM,0.00685 s⁻¹,181000 M⁻¹ s⁻¹,
B14,,,7.45e+08 M⁻¹,1.34 nM,0.00673 s⁻¹,5.01e+06 M⁻¹ s⁻¹,
B15,,,2.03e+08 M⁻¹,4.92 nM,0.00161 s⁻¹,326000 M⁻¹ s⁻¹,
